Measurements published in patent US9284543B2, “Neutral active soluble truncated PH20 polypeptides and uses thereof” (Halozyme, Inc., priority 2008, dated 2016).
One block for each molecule: values may come before it.

Columns and labels:
CHO-S cells = assay: Western blot analysis of PH20 expression in media and cells after transient expression; format: cell-based, Chinese Hamster; details: media versus cells
Method in brief: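 PH20 expression and solubility were judged by anti-PH20 Western blot of non-reduced media and cell fractions, with expression shown by a ~66 kDa band. Samples came from CHO-S cells transiently transfected (GeneJuice) with mutant PH20-HZ24 DNA and cultured 48-72 h. GPI-anchored mutants were cleaved with PI-PLC to release soluble protein.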

[1] = Microtiter hyaluronidase activity assay with biotinylated-hyaluronic acid; format: biochemical; details: Table 6, 72 hour post transfection supernatant

- pH 5.5 Activity [1]: 1.647 Units/ml
- pH 7.4 Activity [1]: 2.032 Units/ml
B1: SPAM1-QIFY: C-terminally truncated human PH20, precursor 482 aa (SEQ ID NO:18), mature 447 aa (SEQ ID NO:70) (protein, listed as Homo sapiens)
chain 1: MGVLKFKHIFFRSFVKSSGVSQIVFTFLLIPCCLTLNFRAPPVIPNVPFLWAWNAPSEFCLGKFDEPLDMSLFSFIGSPRINATGQGVTIFYVDRLGYYPYIDSITGVTVNGGIPQKISLQDHLDKAKKDITFYMPVDNLGMAVIDWEEWRPTWARNWKPKDVYKNRSIELVQQQNVQLSLTEATEKAKQEFEKAGKDFLVETIKLGKLLRPNHLWGYYLFPDCYNHHYKKPGYNGSCFNVEIKRNDDLSWLWNESTALYPSIYLNTQQSPVAATLYVRNRVREAIRVSKIPDAKSPLPVFAYTRIVFTDQVLKFLSQDELVYTFGETVALGASGIVIWGTLSIMRSMKSCLLLDNYMETILNPYIINVTLAAKMCSQVLCQEQGVCIRKNWNSSDYLHLNPDNFAIQLEKGGKFTVRGKPTLEDLEQFSEKFYCSCYSTLSCKEKADVKDTDAVDVCIADGVCIDAFLKPPMETEEPQIFY
chain 2: LNFRAPPVIPNVPFLWAWNAPSEFCLGKFDEPLDMSLFSFIGSPRINATGQGVTIFYVDRLGYYPYIDSITGVTVNGGIPQKISLQDHLDKAKKDITFYMPVDNLGMAVIDWEEWRPTWARNWKPKDVYKNRSIELVQQQNVQLSLTEATEKAKQEFEKAGKDFLVETIKLGKLLRPNHLWGYYLFPDCYNHHYKKPGYNGSCFNVEIKRNDDLSWLWNESTALYPSIYLNTQQSPVAATLYVRNRVREAIRVSKIPDAKSPLPVFAYTRIVFTDQVLKFLSQDELVYTFGETVALGASGIVIWGTLSIMRSMKSCLLLDNYMETILNPYIINVTLAAKMCSQVLCQEQGVCIRKNWNSSDYLHLNPDNFAIQLEKGGKFTVRGKPTLEDLEQFSEKFYCSCYSTLSCKEKADVKDTDAVDVCIADGVCIDAFLKPPMETEEPQIFY
modifications: HuPH20 precursor 1-482; Mature HuPH20 36-482
- Expressed in Media (CHO-S cells): YES

- pH 5.5 Activity [1]: 1.748 Units/ml
- pH 7.4 Activity [1]: 1.8765 Units/ml
B2: SPAM1-YNAS: C-terminally truncated human PH20, precursor 485 aa (SEQ ID NO:15), mature 450 aa (SEQ ID NO:67) (protein, listed as Homo sapiens)
chain: LNFRAPPVIPNVPFLWAWNAPSEFCLGKFDEPLDMSLFSFIGSPRINATGQGVTIFYVDRLGYYPYIDSITGVTVNGGIPQKISLQDHLDKAKKDITFYMPVDNLGMAVIDWEEWRPTWARNWKPKDVYKNRSIELVQQQNVQLSLTEATEKAKQEFEKAGKDFLVETIKLGKLLRPNHLWGYYLFPDCYNHHYKKPGYNGSCFNVEIKRNDDLSWLWNESTALYPSIYLNTQQSPVAATLYVRNRVREAIRVSKIPDAKSPLPVFAYTRIVFTDQVLKFLSQDELVYTFGETVALGASGIVIWGTLSIMRSMKSCLLLDNYMETILNPYIINVTLAAKMCSQVLCQEQGVCIRKNWNSSDYLHLNPDNFAIQLEKGGKFTVRGKPTLEDLEQFSEKFYCSCYSTLSCKEKADVKDTDAVDVCIADGVCIDAFLKPPMETEEPQIFYNAS
modifications: mature HuPH20 36-485
- Expressed in Media (CHO-S cells): YES

- pH 5.5 Activity [1]: 1.701 Units/ml
- pH 7.4 Activity [1]: 1.818 Units/ml
B3: SPAM1-PQIF: C-terminally truncated human PH20, precursor 481 aa (SEQ ID NO:19), mature 446 aa (SEQ ID NO:71) (protein, listed as Homo sapiens)
chain 1: MGVLKFKHIFFRSFVKSSGVSQIVFTFLLIPCCLTLNFRAPPVIPNVPFLWAWNAPSEFCLGKFDEPLDMSLFSFIGSPRINATGQGVTIFYVDRLGYYPYIDSITGVTVNGGIPQKISLQDHLDKAKKDITFYMPVDNLGMAVIDWEEWRPTWARNWKPKDVYKNRSIELVQQQNVQLSLTEATEKAKQEFEKAGKDFLVETIKLGKLLRPNHLWGYYLFPDCYNHHYKKPGYNGSCFNVEIKRNDDLSWLWNESTALYPSIYLNTQQSPVAATLYVRNRVREAIRVSKIPDAKSPLPVFAYTRIVFTDQVLKFLSQDELVYTFGETVALGASGIVIWGTLSIMRSMKSCLLLDNYMETILNPYIINVTLAAKMCSQVLCQEQGVCIRKNWNSSDYLHLNPDNFAIQLEKGGKFTVRGKPTLEDLEQFSEKFYCSCYSTLSCKEKADVKDTDAVDVCIADGVCIDAFLKPPMETEEPQIF
chain 2: LNFRAPPVIPNVPFLWAWNAPSEFCLGKFDEPLDMSLFSFIGSPRINATGQGVTIFYVDRLGYYPYIDSITGVTVNGGIPQKISLQDHLDKAKKDITFYMPVDNLGMAVIDWEEWRPTWARNWKPKDVYKNRSIELVQQQNVQLSLTEATEKAKQEFEKAGKDFLVETIKLGKLLRPNHLWGYYLFPDCYNHHYKKPGYNGSCFNVEIKRNDDLSWLWNESTALYPSIYLNTQQSPVAATLYVRNRVREAIRVSKIPDAKSPLPVFAYTRIVFTDQVLKFLSQDELVYTFGETVALGASGIVIWGTLSIMRSMKSCLLLDNYMETILNPYIINVTLAAKMCSQVLCQEQGVCIRKNWNSSDYLHLNPDNFAIQLEKGGKFTVRGKPTLEDLEQFSEKFYCSCYSTLSCKEKADVKDTDAVDVCIADGVCIDAFLKPPMETEEPQIF
modifications: HuPH20 precursor 1-481; Mature HuPH20 36-481
- Expressed in Media (CHO-S cells): YES

More lines, now with the values behind:

B4: SPAM1-IFYN: C-terminally truncated human PH20, precursor 483 aa (SEQ ID NO:17), mature 448 aa (SEQ ID NO:69) (protein, listed as Homo sapiens)
chain 1: MGVLKFKHIFFRSFVKSSGVSQIVFTFLLIPCCLTLNFRAPPVIPNVPFLWAWNAPSEFCLGKFDEPLDMSLFSFIGSPRINATGQGVTIFYVDRLGYYPYIDSITGVTVNGGIPQKISLQDHLDKAKKDITFYMPVDNLGMAVIDWEEWRPTWARNWKPKDVYKNRSIELVQQQNVQLSLTEATEKAKQEFEKAGKDFLVETIKLGKLLRPNHLWGYYLFPDCYNHHYKKPGYNGSCFNVEIKRNDDLSWLWNESTALYPSIYLNTQQSPVAATLYVRNRVREAIRVSKIPDAKSPLPVFAYTRIVFTDQVLKFLSQDELVYTFGETVALGASGIVIWGTLSIMRSMKSCLLLDNYMETILNPYIINVTLAAKMCSQVLCQEQGVCIRKNWNSSDYLHLNPDNFAIQLEKGGKFTVRGKPTLEDLEQFSEKFYCSCYSTLSCKEKADVKDTDAVDVCIADGVCIDAFLKPPMETEEPQIFYN
chain 2: LNFRAPPVIPNVPFLWAWNAPSEFCLGKFDEPLDMSLFSFIGSPRINATGQGVTIFYVDRLGYYPYIDSITGVTVNGGIPQKISLQDHLDKAKKDITFYMPVDNLGMAVIDWEEWRPTWARNWKPKDVYKNRSIELVQQQNVQLSLTEATEKAKQEFEKAGKDFLVETIKLGKLLRPNHLWGYYLFPDCYNHHYKKPGYNGSCFNVEIKRNDDLSWLWNESTALYPSIYLNTQQSPVAATLYVRNRVREAIRVSKIPDAKSPLPVFAYTRIVFTDQVLKFLSQDELVYTFGETVALGASGIVIWGTLSIMRSMKSCLLLDNYMETILNPYIINVTLAAKMCSQVLCQEQGVCIRKNWNSSDYLHLNPDNFAIQLEKGGKFTVRGKPTLEDLEQFSEKFYCSCYSTLSCKEKADVKDTDAVDVCIADGVCIDAFLKPPMETEEPQIFYN
modifications: HuPH20 precursor 1-483; Mature HuPH20 36-483
- Expressed in Media (CHO-S cells): YES
- pH 5.5 Activity [1]: 2.3085 Units/ml
- pH 7.4 Activity [1]: 2.45 Units/ml

B5: SPAM1-FYNA: C-terminally truncated human PH20, precursor 484 aa (SEQ ID NO:16), mature 449 aa (SEQ ID NO:68) (protein, listed as Homo sapiens)
chain 1: MGVLKFKHIFFRSFVKSSGVSQIVFTFLLIPCCLTLNFRAPPVIPNVPFLWAWNAPSEFCLGKFDEPLDMSLFSFIGSPRINATGQGVTIFYVDRLGYYPYIDSITGVTVNGGIPQKISLQDHLDKAKKDITFYMPVDNLGMAVIDWEEWRPTWARNWKPKDVYKNRSIELVQQQNVQLSLTEATEKAKQEFEKAGKDFLVETIKLGKLLRPNHLWGYYLFPDCYNHHYKKPGYNGSCFNVEIKRNDDLSWLWNESTALYPSIYLNTQQSPVAATLYVRNRVREAIRVSKIPDAKSPLPVFAYTRIVFTDQVLKFLSQDELVYTFGETVALGASGIVIWGTLSIMRSMKSCLLLDNYMETILNPYIINVTLAAKMCSQVLCQEQGVCIRKNWNSSDYLHLNPDNFAIQLEKGGKFTVRGKPTLEDLEQFSEKFYCSCYSTLSCKEKADVKDTDAVDVCIADGVCIDAFLKPPMETEEPQIFYNA
chain 2: LNFRAPPVIPNVPFLWAWNAPSEFCLGKFDEPLDMSLFSFIGSPRINATGQGVTIFYVDRLGYYPYIDSITGVTVNGGIPQKISLQDHLDKAKKDITFYMPVDNLGMAVIDWEEWRPTWARNWKPKDVYKNRSIELVQQQNVQLSLTEATEKAKQEFEKAGKDFLVETIKLGKLLRPNHLWGYYLFPDCYNHHYKKPGYNGSCFNVEIKRNDDLSWLWNESTALYPSIYLNTQQSPVAATLYVRNRVREAIRVSKIPDAKSPLPVFAYTRIVFTDQVLKFLSQDELVYTFGETVALGASGIVIWGTLSIMRSMKSCLLLDNYMETILNPYIINVTLAAKMCSQVLCQEQGVCIRKNWNSSDYLHLNPDNFAIQLEKGGKFTVRGKPTLEDLEQFSEKFYCSCYSTLSCKEKADVKDTDAVDVCIADGVCIDAFLKPPMETEEPQIFYNA
modifications: HuPH20 precursor 1-484; Mature HuPH20 36-484
- Expressed in Media (CHO-S cells): YES
- pH 5.5 Activity [1]: 1.262 Units/ml
- pH 7.4 Activity [1]: 1.4985 Units/ml
